Experimental data: patent publication US20030049732A1 (Human Genome Sciences, published 2003)

Biological target: T1, Nod1 (human, UniProt Q9Y239 1-953)
T1 construct: also called wild-type Nod1; WT Nod1
T1 sequence: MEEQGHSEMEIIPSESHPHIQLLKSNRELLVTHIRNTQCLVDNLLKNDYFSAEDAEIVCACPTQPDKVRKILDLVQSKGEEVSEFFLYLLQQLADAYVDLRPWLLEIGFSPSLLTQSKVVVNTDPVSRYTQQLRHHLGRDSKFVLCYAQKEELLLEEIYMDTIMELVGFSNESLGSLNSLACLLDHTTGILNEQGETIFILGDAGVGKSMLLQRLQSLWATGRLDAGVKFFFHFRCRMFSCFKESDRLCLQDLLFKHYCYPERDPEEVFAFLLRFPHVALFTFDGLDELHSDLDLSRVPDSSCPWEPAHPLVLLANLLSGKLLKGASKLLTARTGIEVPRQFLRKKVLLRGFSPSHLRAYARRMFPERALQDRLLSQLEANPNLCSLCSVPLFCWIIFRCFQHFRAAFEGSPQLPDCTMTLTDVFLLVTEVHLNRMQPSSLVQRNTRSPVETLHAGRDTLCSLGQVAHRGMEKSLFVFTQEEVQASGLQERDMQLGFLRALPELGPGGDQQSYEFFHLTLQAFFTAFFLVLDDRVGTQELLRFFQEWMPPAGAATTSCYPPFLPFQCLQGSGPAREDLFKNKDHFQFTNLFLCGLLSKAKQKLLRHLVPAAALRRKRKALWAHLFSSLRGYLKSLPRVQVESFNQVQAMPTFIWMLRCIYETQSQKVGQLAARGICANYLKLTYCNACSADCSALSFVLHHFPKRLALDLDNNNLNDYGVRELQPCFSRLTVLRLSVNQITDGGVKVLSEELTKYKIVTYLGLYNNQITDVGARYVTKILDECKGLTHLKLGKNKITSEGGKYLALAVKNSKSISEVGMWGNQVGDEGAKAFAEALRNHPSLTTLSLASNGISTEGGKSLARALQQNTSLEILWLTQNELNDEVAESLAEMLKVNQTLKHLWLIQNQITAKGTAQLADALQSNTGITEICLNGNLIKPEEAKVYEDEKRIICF
Experiment: co-immunoprecipitation, tagged proteins transiently expressed in 293T cells
Text: The CARD and its structurally related death effector domain (DED) are peptide motifs that mediate interactions between apoptosis-regulatory proteins (Science 281:1301 (1998); Hofmann et al., Trends Biochem. Sci. 22:155 (1998)).

B1: NIK (enzyme, UniProt Q99558 1-947, looked up)
chain: MAVMEMACPGAPGSAVGQQKELPKAKEKTPPLGKKQSSVYKLEAVEKSPVFCGKWEILNDVITKGTAKEGSEAGPAAISIIAQAECENSQEFSPTFSERIFIAGSKQYSQSESLDQIPNNVAHATEGKMARVCWKGKRRSKARKKRKKKSSKSLAHAGVALAKPLPRTPEQESCTIPVQEDESPLGAPYVRNTPQFTKPLKEPGLGQLCFKQLGEGLRPALPRSELHKLISPLQCLNHVWKLHHPQDGGPLPLPTHPFPYSRLPHPFPFHPLQPWKPHPLESFLGKLACVDSQKPLPDPHLSKLACVDSPKPLPGPHLEPSCLSRGAHEKFSVEEYLVHALQGSVSSGQAHSLTSLAKTWAARGSRSREPSPKTEDNEGVLLTEKLKPVDYEYREEVHWATHQLRLGRGSFGEVHRMEDKQTGFQCAVKKVRLEVFRAEELMACAGLTSPRIVPLYGAVREGPWVNIFMELLEGGSLGQLVKEQGCLPEDRALYYLGQALEGLEYLHSRRILHGDVKADNVLLSSDGSHAALCDFGHAVCLQPDGLGKSLLTGDYIPGTETHMAPEVVLGRSCDAKVDVWSSCCMMLHMLNGCHPWTQFFRGPLCLKIASEPPPVREIPPSCAPLTAQAIQEGLRKEPIHRVSAAELGGKVNRALQQVGGLKSPWRGEYKEPRHPPPNQANYHQTLHAQPRELSPRAPGPRPAEETTGRAPKLQPPLPPEPPEPNKSPPLTLSKEESGMWEPLPLSSLEPAPARNPSSPERKATVPEQELQQLEIELFLNSLSQPFSLEEQEQILSCLSIDSLSLSDDSEKNPSKASQSSRDTLSSGVHSWSSQAEARSSSWNMVLARGRPTDTPSYFNGVKVQIQSLNGEHLHIREFHRVKVGDIATGISSQIPAAAFSLVTKDGQPVRYDMEVPDSGIDLQCTLAPDGSFAWSWRVKHGQLENRP
notes: also called N1K
binding result: no binding
